# Patent publication US20260226125A1 (MEDICENNA THERAPEUTICS, published 2026)
# T1: human CD25 (IL-2Rα) (human, UniProt P01589 22-240, limits assumed)
# T1 construct: Receptor reagent used in SPR; also called interleukin 2 receptor alpha
# T1 sequence (looked up): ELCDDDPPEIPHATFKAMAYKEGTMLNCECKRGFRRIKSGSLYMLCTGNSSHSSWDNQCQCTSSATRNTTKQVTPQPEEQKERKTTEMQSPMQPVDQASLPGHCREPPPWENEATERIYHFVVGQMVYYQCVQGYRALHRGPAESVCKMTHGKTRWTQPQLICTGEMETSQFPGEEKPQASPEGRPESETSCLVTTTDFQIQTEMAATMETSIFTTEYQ
# T2: human CD122 (IL-2Rβ) (human, UniProt P14784 27-240)
# T2 construct: Receptor reagent used in SPR; also called interleukin 2 receptor beta
# T2 sequence (looked up): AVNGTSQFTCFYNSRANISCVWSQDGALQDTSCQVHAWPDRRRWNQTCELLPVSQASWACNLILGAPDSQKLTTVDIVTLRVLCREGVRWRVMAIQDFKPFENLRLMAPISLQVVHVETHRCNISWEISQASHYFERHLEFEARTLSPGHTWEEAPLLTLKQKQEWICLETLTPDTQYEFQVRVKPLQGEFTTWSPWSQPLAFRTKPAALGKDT
# T3: γc (CD132, IL-2Rγ, common gamma chain) (human, UniProt P31785 23-369)
# T3 sequence (looked up): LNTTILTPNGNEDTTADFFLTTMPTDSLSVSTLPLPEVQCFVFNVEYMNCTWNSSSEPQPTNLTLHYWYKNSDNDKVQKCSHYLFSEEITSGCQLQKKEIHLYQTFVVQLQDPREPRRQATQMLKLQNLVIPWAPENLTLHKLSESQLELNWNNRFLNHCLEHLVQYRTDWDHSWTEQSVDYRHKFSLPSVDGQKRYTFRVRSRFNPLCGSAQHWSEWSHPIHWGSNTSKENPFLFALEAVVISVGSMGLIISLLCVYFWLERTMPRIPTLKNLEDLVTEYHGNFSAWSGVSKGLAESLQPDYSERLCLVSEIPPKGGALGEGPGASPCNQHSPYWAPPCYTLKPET
# T4: high affinity IL-2 receptor (human IL-2Rα, IL-2Rβ, IL-2Rγ) on HEK-Blue IL-2 reporter cells (human, UniProt P01589 22-272; P14784 27-551; P31785 23-369)
# T4 sequence (looked up) 1: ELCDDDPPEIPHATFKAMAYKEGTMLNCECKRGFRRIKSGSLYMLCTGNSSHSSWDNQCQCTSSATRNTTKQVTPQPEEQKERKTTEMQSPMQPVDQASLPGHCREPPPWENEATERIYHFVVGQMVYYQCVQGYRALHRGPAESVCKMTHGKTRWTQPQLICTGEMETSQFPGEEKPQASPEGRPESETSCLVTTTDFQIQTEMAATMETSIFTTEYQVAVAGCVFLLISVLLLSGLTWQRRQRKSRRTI
# T4 sequence (looked up) 2: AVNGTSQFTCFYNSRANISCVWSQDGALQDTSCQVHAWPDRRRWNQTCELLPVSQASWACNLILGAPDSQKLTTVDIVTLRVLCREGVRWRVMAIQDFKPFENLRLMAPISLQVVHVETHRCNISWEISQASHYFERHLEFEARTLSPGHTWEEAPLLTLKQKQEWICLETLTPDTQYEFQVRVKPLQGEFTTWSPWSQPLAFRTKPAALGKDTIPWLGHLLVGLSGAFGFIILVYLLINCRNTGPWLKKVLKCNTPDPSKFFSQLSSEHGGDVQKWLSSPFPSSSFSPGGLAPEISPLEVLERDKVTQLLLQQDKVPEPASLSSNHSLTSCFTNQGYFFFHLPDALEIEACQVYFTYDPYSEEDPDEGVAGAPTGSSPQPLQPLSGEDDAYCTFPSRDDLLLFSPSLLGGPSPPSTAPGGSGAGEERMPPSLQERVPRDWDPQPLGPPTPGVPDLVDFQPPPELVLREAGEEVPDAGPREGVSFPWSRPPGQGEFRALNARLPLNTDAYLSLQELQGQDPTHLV
# T4 sequence (looked up) 3: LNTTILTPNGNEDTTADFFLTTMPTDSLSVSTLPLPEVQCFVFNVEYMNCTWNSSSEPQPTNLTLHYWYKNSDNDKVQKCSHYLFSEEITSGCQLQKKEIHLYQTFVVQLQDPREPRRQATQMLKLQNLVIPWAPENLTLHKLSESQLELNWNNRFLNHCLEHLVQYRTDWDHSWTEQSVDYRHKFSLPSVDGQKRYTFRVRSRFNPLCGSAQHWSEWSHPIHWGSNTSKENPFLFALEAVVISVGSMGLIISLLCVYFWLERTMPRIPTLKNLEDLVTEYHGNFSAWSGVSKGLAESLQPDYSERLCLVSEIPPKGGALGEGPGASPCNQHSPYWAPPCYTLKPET
# Columns and labels:
# [1] = molecular target: T1, human CD25 (IL-2Rα); assay: SPR, drawn table 'Individual Receptor Subunit Binding', column 'Affinity for IL-2Rα Kd (nM)'
# [2] = molecular target: T2, human CD122 (IL-2Rβ); assay: SPR, drawn table 'Individual Receptor Subunit Binding', column 'Affinity for IL-2Rβ Kd (nM)'
# [3] = molecular target: T2, human CD122 (IL-2Rβ); assay: SPR; 1:1 binding fit
# Protocol: (§1) Binding interactions between proteins using purified preparations or complex mixtures can be examined quantitatively in their native state and can assess binding specificity, stoichiometry, concentration, thermodynamics, kinetics (association, kₐ, and dissociation, kd, rate constants), and overall affinity (equilibrium dissociation constant, KD=kd/kₐ). Sensor chips (CM5) were activated (420 s at a flow rate of 10 μL/min) and 50 μg/mL of Anti-histidine antibody (in Immobilization buffer 10 mM Sodium Acetate (pH4.5)) was injected (420 s at a flow rate of 10 μL/min). For ligand capturing, samples were diluted to 5 μg/mL (HEPES, with 0.005% Tween-20, ph7.4) and injected (flow rate of 10 μL/min) to reach a capture level of ~200 RU. Receptors were diluted and up to 8 concentrations as indicated and injected (flow rate of 30 μL/min) for an association phase of 120 seconds, followed by 300 seconds dissociation.
# [4] = molecular target: T1, human CD25 (IL-2Rα); assay: SPR sensorgram, legend 0.195 to 50 nM
# Protocol: as §1
# [5] = molecular target: T2, human CD122 (IL-2Rβ); assay: SPR; 1:1 binding fit; remark: listed apart in the source
# [6] = molecular target: T1, human CD25 (IL-2Rα); assay: SPR; 1:1 binding fit
# [7] = molecular target: T1, human CD25 (IL-2Rα); assay: SPR; steady state affinity
# [8] = molecular target: T3, γc (CD132, IL-2Rγ, common gamma chain); assay: cell-based or functional assay
# [9] = molecular target: T1, human CD25 (IL-2Rα); assay: SPR sensorgram, series 62.5 to 1.953 nM
# Protocol: as §1
# [10] = molecular target: T4, high affinity IL-2 receptor (human …); assay: cell-based or functional assay
# [11] = molecular target: T1, human CD25 (IL-2Rα); assay: SPR; steady state affinity; remark: listed apart in the source
# Protocol: as §1
# [12] = molecular target: T1, human CD25 (IL-2Rα); assay: SPR sensorgram, no concentration legend
# [13] = molecular target: T3, γc (CD132, IL-2Rγ, common gamma chain); assay: cell-based or functional assay; remark: listed apart in the source
molecule,measurement,setting,value
MDNA109-Fc (Fc fusion),Kd,[1],14 nM
same,Kd,[2],2.7 nM
"MDNA209FA-Fc (2:1) (Fc fusion, MDNA209 plus F42A, fused to Fc; also called TP40451F; not shown: linker (if any) and Fc region) APTSSSTKKTQLQLEHLRLDLEMILNGINNYKNPKLTRMLTAKFYMPKKATELKHLQCLEEELKPLEEVLNLAQSKNFHFDPRDVVSNINVFVLELKGSETTFMCEYADETATIVEFLNRWITFCTSIIRTLT",Kd,[3],5.51 nM
same,binding result,[4],no binding (tested: 50 nM)
MDNA209 (free) (ligand) APTSSSTKKTQLQLEHLRLDLEMILNGINNYKNPKLTRMLTFKFYMPKKATELKHLQCLEEELKPLEEVLNLAQSKNFHFDPRDVVSNINVFVLELKGSETTFMCEYADETATIVEFLNRWITFCTSIIRTLT,Kd,[5],0.537 nM
same,Kd,[6],31.3 nM
"MDNA209(3)-Fc (Fc fusion, MDNA209(3) (L18R, Q22E, L80F, R81D, L85V, I86V, I92F, Q126T) fused to Fc, made in CHO; not shown: linker (if any) and Fc region) APTSSSTKKTQLQLEHLRLDLEMILNGINNYKNPKLTRMLTFKFYMPKKATELKHLQCLEEELKPLEEVLNLAQSKNFHFDPRDVVSNINVFVLELKGSETTFMCEYADETATIVEFLNRWITFCTSIISTLT",Kd,[5],3.25 nM
same,Kd,[6],35.8 nM
"MDNA209(3)FA-Fc (Fc fusion, MDNA209(3) plus F42A fused to Fc, made in CHO; not shown: linker (if any) and Fc region) APTSSSTKKTQLQLEHLRLDLEMILNGINNYKNPKLTRMLTAKFYMPKKATELKHLQCLEEELKPLEEVLNLAQSKNFHFDPRDVVSNINVFVLELKGSETTFMCEYADETATIVEFLNRWITFCTSIISTLT",Kd,[5],3.79 nM
same,Kd,[7],4610 nM
"MDNA209(3)FEAA-Fc (2:1) (Fc fusion, MDNA209(3) (no S130R) plus F42A, E62A, fused to Fc; also called TP36872F; not shown: linker (if any) and Fc region) APTSSSTKKTQLQLEHLRLDLEMILNGINNYKNPKLTRMLTAKFYMPKKATELKHLQCLEEALKPLEEVLNLAQSKNFHFDPRDVVSNINVFVLELKGSETTFMCEYADETATIVEFLNRWITFCTSIISTLT","fold decrease in agonist activity, HEK-Blue IL-2 reporter assay",[8],~60 fold
same,Kd,[3],3.75 nM
same,binding result,[9],no binding (tested: 62.5 nM)
"MDNA209-Fc (2:1) (Fc fusion, IL-2 mutein MDNA209 (L18R, Q22E, L80F, R81D, L85V, I86V, I92F, Q126T, S130R) fused to Fc; (2:1) read as two muteins per Fc dimer; order from the name; also called MDNA209 (2:1) Fc; Construct #8; not shown: linker (if any) and Fc region) APTSSSTKKTQLQLEHLRLDLEMILNGINNYKNPKLTRMLTFKFYMPKKATELKHLQCLEEELKPLEEVLNLAQSKNFHFDPRDVVSNINVFVLELKGSETTFMCEYADETATIVEFLNRWITFCTSIIRTLT",Kd,[3],3.91 nM
same,"Fold against IL-2-Fc alone, HEK-Blue IL-2 reporter assay, antagonist format",[10],15.1 fold
same,"fold decrease in Fold against hIL-2, HEK-Blue IL-2 reporter assay, fixed agonist format",[10],210 fold
same,Kd,[11],39.1 nM
MDNA209FEAA (free) (ligand) APTSSSTKKTQLQLEHLRLDLEMILNGINNYKNPKLTRMLTAKFYMPKKATELKHLQCLEEALKPLEEVLNLAQSKNFHFDPRDVVSNINVFVLELKGSETTFMCEYADETATIVEFLNRWITFCTSIIRTLT,Kd,[5],1.59 nM
same,binding result,[12],no binding
"MDNA209FEAA-Fc (2:1) (Fc fusion, MDNA209 plus F42A, E62A, fused to Fc; also called MDN209FEAA-Fc; TP36871F; not shown: linker (if any) and Fc region) APTSSSTKKTQLQLEHLRLDLEMILNGINNYKNPKLTRMLTAKFYMPKKATELKHLQCLEEALKPLEEVLNLAQSKNFHFDPRDVVSNINVFVLELKGSETTFMCEYADETATIVEFLNRWITFCTSIIRTLT",Kd,[3],4.94 nM
same,"EC50 (agonist activity), HEK-Blue IL-2 reporter assay",[13],> 107 nM
same,"Fold against hIL-2 (agonist activity), HEK-Blue IL-2 reporter assay",[13],~2800 fold
same,binding result,[9],no binding (tested: 62.5 nM)
"MDNA209FEAA-Fc-A11 (2:1:2) (Fc fusion, Bispecific format: IL-2 antagonist mutein with FEAA, Fc, and IL-13 mutein A11; also called Construct #10; not shown: linker (if any), Fc, linker and IL-13 mutein A11) APTSSSTKKTQLQLEHLRLDLEMILNGINNYKNPKLTRMLTAKFYMPKKATELKHLQCLEEALKPLEEVLNLAQSKNFHFDPRDVVSNINVFVLELKGSETTFMCEYADETATIVEFLNRWITFCTSIIRTLT",Kd,[3],4.59 nM
same,binding result,[9],no binding (tested: 62.5 nM)
"MDNA209FEY-Fc (2:1) (Fc fusion, MDNA209 plus F42A, Y45A, fused to Fc; also called TP40452F; not shown: linker (if any) and Fc region) APTSSSTKKTQLQLEHLRLDLEMILNGINNYKNPKLTRMLTAKFAMPKKATELKHLQCLEEELKPLEEVLNLAQSKNFHFDPRDVVSNINVFVLELKGSETTFMCEYADETATIVEFLNRWITFCTSIIRTLT",Kd,[3],4.99 nM
same,binding result,[4],no binding (tested: 50 nM)
